Source: IntAct's records for PubMed 29039417

B1: BBSome-interacting protein 1 (Homo sapiens), A8MTZ0 (parent)
chain: MLKAAAKRPELSGKNTISNNSDMAEVKSMFREVLPKQGPLFVEDIMTMVLCKPKLLPLKSLTLEKLEKMHQAAQNTIRQQEMAEKDQRQITH
partner: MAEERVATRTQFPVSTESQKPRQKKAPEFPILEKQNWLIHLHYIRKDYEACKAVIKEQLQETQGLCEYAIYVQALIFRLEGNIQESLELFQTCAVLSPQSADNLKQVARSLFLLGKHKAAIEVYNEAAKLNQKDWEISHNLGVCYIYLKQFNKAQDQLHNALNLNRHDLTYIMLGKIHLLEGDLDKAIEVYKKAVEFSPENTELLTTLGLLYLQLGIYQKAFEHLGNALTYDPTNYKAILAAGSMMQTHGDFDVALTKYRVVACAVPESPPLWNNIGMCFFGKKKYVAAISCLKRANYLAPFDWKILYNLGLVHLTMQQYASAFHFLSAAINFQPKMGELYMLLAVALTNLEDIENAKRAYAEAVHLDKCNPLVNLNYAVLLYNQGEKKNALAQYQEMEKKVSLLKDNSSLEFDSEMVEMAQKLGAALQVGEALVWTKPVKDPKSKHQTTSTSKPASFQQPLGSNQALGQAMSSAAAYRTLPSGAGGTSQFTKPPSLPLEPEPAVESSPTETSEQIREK
B2: BBSome complex member BBS1 (Homo sapiens), Q8NFJ9 (parent)
chain: MAAASSSDSDACGAESNEANSKWLDAHYDPMANIHTFSACLALADLHGDGEYKLVVGDLGPGGQQPRLKVLKGPLVMTESPLPALPAAAATFLMEQHEPRTPALALASGPCVYVYKNLRPYFKFSLPQLPPNPLEQDLWNQAKEDRIDPLTLKEMLESIRETAEEPLSIQSLRFLQLELSEMEAFVNQHKSNSIKRQTVITTMTTLKKNLADEDAVSCLVLGTENKELLVLDPEAFTILAKMSLPSVPVFLEVSGQFDVEFRLAAACRNGNIYILRRDSKHPKYCIELSAQPVGLIRVHKVLVVGSTQDSLHGFTHKGKKLWTVQMPAAILTMNLLEQHSRGLQAVMAGLANGEVRIYRDKALLNVIHTPDAVTSLCFGRYGREDNTLIMTTRGGGLIIKILKRTAVFVEGGSEVGPPPAQAMKLNVPRKTRLYVDQTLREREAGTAMHRAFQTDLYLLRLRAARAYLQALESSLSPLSTTAREPLKLHAVVQGLGPTFKLTLHLQNTSTTRPVLGLLVCFLYNEALYSLPRAFFKVPLLVPGLNYPLETFVESLSNKGISDIIKVLVLREGQSAPLLSAHVNMPGSEGLAAA
partner: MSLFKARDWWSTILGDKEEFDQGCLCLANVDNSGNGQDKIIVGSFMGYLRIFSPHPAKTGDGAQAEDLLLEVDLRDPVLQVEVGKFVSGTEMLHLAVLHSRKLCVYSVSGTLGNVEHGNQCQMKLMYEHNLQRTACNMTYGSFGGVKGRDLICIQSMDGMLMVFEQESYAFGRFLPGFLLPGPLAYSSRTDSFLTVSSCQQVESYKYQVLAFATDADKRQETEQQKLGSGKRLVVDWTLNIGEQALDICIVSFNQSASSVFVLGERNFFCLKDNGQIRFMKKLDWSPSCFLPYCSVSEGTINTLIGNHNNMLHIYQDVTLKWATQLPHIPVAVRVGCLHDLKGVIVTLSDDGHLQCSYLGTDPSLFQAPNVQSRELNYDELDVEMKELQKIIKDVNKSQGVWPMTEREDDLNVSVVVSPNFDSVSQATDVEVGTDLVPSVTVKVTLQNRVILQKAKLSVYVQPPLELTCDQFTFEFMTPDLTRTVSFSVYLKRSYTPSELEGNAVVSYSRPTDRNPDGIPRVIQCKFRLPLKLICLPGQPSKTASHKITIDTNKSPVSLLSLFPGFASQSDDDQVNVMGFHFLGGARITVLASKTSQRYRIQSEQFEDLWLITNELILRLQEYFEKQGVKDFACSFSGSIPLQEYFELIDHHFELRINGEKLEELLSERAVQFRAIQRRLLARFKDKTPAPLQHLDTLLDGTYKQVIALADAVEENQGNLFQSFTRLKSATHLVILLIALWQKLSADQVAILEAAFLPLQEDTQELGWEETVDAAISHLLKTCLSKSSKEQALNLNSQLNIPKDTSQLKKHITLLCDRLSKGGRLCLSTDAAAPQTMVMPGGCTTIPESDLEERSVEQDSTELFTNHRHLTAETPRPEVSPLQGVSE

Variants of: B1
Conditions: with bbs4_human BBS4, Q96RK4

effect of a mutation on the interaction	Variant
with no effect	MLKAAAKRPELSGKNTISNNSDMAEVKSMFREVLPKQGPLFVEDIMTMVLCKPKLLPLKSLTLEKLEKKHQAAQNTIRQQEMAEKDQRQITH
disrupting interaction strength	MLKAAAKRPELSGKNTISNNSDMAEVKSMFREVLPKQGPLFVEDIMTMVLCKPKLFPLKSLTLEKLEKMHQAAQNTIRQQEMAEKDQRQITH
with no effect	MLKAAAKRPELSGKNTISNNSDMAEVKSMFREVLPKQGPLFVEDIMTMVLCKPKLLPLKSLTLEKLEKMHQAAQNTIRQQEMAEKDKRQITH
with no effect	MLKAAAKRPELSGKNTISNNSDMAEVKSMFREVLPKQGPLFVEDIMTMVLCKPKLLPLKSLTLEKLEKAHQAAQNTIRQQEMAEKDQRQITH
with no effect	MLKAAAKRPELSGKNTISNNSDMAEVKSMFREVLPKQGPLFVEDIMTMVLCKPKLLPLKSLTLEKLEKMHQAAQETIRQQEMAEKDQRQITH
with no effect	MLKAAAKRPELSGKNTISNNSDMAEVKSMFREVLPKQGPLFVEDIMTMVLCKPKLLPLKSLTLEKLEKMHQAAKNTIRQQEMAEKDQRQITH
with no effect	MLKAAAKRPELSGKNTISNNSDMAEVKSMFREVLPKQGPLFVEDIMTMVLCKPKLLPLKSLTLEKLEKMHQAEQNTIRQQEMAEKDQRQITH
with no effect	MLKAAAKRPELSGKNTISNNSDMAEVKSMFREVLPKQGPLFVEDIMTMVLCKPKLLPLKSLTLEKLEKMHQAAQNTIRQQEMAEKDQEQITH

Second part, the variant before the results:

Variant	effect of a mutation on the interaction
MLKAAAKRPELSGKETISNNSDMAEVKSMFREVLPKQGPLFVEDIMTMVLCKPKLLPLKSLTLEKLEKMHQAAQNTIRQQEMAEKDQRQITH	with no effect
MLKAKAKRPELSGKNTISNNSDMAEVKSMFREVLPKQGPLFVEDIMTMVLCKPKLLPLKSLTLEKLEKMHQAAQNTIRQQEMAEKDQRQITH	with no effect
MLKAAAKRPELSGKNTISNNSDMAEVKSMFREVLPKQGPLEVEDIMTMVLCKPKLLPLKSLTLEKLEKMHQAAQNTIRQQEMAEKDQRQITH	with no effect
MLKAAAKRPELSGKNTISNNSDMAEVKSMKREVLPKQGPLFVEDIMTMVLCKPKLLPLKSLTLEKLEKMHQAAQNTIRQQEMAEKDQRQITH	with no effect
MLKAAAKRPEESGKNTISNNSDMAEVKSMFREVLPKQGPLFVEDIMTMVLCKPKLLPLKSLTLEKLEKMHQAAQNTIRQQEMAEKDQRQITH	with no effect
MLKAAAKRPELSGKNTISNNSDMAEVKSMFREVDPKQGPLFVEDIMTMVLCKPKLLPLKSLTLEKLEKMHQAAQNTIRQQEMAEKDQRQITH	disrupting interaction strength
MLKAAAKRPELSGKKTISNNSDMAEVKSMFREVLPKQGPLFVEDIMTMVLCKPKLLPLKSLTLEKLEKMHQAAQNTIRQQEMAEKDQRQITH	with no effect
MLKAAAKRPELSGKNTISNNSDMAEVKSMFREVLPKQGPLFVEDIMEMVLCKPKLLPLKSLTLEKLEKMHQAAQNTIRQQEMAEKDQRQITH	with no effect
MLKAAAKRPELSGKNTISNNSDMAEVKSMFREVLPKQGPLFVEDIATMVLCKPKLLPLKSLTLEKLEKMHQAAQNTIRQQEMAEKDQRQITH	with no effect
MLKAAAKRPELSGKNTISNNSDMAEVKSMFREVLPKQGPAFVEDIMTMVLCKPKLLPLKSLTLEKLEKMHQAAQNTIRQQEMAEKDQRQITH	with no effect
MLKAAAKRPELSGKNTISNNSDMAEVKSMFREVLPKQGPLFVEDAMTMVLCKPKLLPLKSLTLEKLEKMHQAAQNTIRQQEMAEKDQRQITH	with no effect
MLKAAAKRPELSGKNTISNNSDMAEEKSMFREVLPKQGPLFVEDIMTMVLCKPKLLPLKSLTLEKLEKMHQAAQNTIRQQEMAEKDQRQITH	with no effect
MLKAAAKRPELSGKNTISNNSDMAEVKSMFREVLPKQGPLFVEDIFTMVLCKPKLLPLKSLTLEKLEKMHQAAQNTIRQQEMAEKDQRQITH	disrupting interaction strength
MLKAAAKRPELSGKNTISNNSDMAEVKSMFREVLPKQGPLFVADIMTMVLCKPKLLPLKSLTLEKLEKMHQAAQNTIRQQEMAEKDQRQITH	with no effect
MLKAAAKRPELSGKNTISNNSDMAEVKSMEREVLPKQGPLFVEDIMTMVLCKPKLLPLKSLTLEKLEKMHQAAQNTIRQQEMAEKDQRQITH	with no effect
MLKAAAKRPELSGKNTISNNSDMAEVKSMFREVLPKQGPLFVKDIMTMVLCKPKLLPLKSLTLEKLEKMHQAAQNTIRQQEMAEKDQRQITH	with no effect
MLKKAAKRPELSGKNTISNNSDMAEVKSMFREVLPKQGPLFVEDIMTMVLCKPKLLPLKSLTLEKLEKMHQAAQNTIRQQEMAEKDQRQITH	with no effect

Variants of: B2
Conditions: with pthb1_human BBS9, Q3SYG4

Variant	effect of a mutation on the interaction
MAAASSSDSDACGAESNEANSKWLDAHYDPMANIHTFSACLALADLHGDGEYKLVVGDLGPGGQQPRLKVLKGPLVMTESPLPALPAAAATFLMEQHEPRTPALALASGPCVYVYKNLRPYFKFSLPQLPPNPLEQDLWNQAKEDRIDPLTLKEMLESIRETAEEPLSIQSLRFLQLELSEMEAFVNQHKSNSIKRQTVITTMTTLKKNLADEDAVSCLVLGTENKELLVLDPEAFTILAKMSLPSVPVFLEVSGQFDVEFRLAAACRNGNIYILRRDSKHPKYCIELSAQPVGLIRVHKVLVVGSTQDSLHGFTHKGKKLWTVQMPAAILTMNLLEQHSRGLQAVMAGLANGEVRIYRDKALLNVIHTPDAVTSLCFGRYGREDNTLIMTTRGGGLIIKILKRTAVFVEGGAEVGPPPAQAMKLNVPRKTRLYVDQTLREREAGTAMHRAFQTDLYLLRLRAARAYLQALESSLSPLSTTAREPLKLHAVVQGLGPTFKLTLHLQNTSTTRPVLGLLVCFLYNEALYSLPRAFFKVPLLVPGLNYPLETFVESLSNKGISDIIKVLVLREGQSAPLLSAHVNMPGSEGLAAA [S413A]	with no effect
